Experiment [1] addresses T1, human FcγRIIB (NM_004001) expressed on cells (human, UniProt P31994 43-310).
T1 sequence: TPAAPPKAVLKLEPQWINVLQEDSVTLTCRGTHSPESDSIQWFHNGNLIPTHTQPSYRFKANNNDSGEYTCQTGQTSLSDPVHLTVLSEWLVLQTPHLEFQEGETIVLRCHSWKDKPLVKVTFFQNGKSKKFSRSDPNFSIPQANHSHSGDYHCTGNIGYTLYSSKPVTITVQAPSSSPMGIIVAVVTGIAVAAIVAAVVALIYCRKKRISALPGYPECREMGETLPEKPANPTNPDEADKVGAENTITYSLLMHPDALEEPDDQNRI
Put plainly: cell-based or functional assay.

For experiment [2], the target named is T2, human FcγRI (NM_000566) expressed on cells (human, UniProt P12314 16-374).
T2 construct: Transiently expressed on Expi293F cells
T2 sequence (P12314 16-374 limits assumed): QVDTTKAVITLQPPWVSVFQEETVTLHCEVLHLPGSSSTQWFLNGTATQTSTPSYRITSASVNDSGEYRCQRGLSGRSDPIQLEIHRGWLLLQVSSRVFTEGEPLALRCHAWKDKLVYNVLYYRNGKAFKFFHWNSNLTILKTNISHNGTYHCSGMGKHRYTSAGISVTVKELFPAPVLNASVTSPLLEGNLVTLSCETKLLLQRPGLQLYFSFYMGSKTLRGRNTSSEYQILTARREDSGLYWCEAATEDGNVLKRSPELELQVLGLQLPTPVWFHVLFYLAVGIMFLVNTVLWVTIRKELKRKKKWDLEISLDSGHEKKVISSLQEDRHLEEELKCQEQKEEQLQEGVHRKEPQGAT
The experiment can be described thus: flow cytometry; Expi293F cells transfected with FcγRI. As for the experimental part: Plasmids expressing cDNAs encoding human FcγRI (NM_000566) (SEQ ID NO: 44), FcγRIIA (NM_021642) (SEQ ID NO: 2), FcγRIIB (NM_004001) (SEQ ID NO: 3), and FcγRIIIA (NM_000569) (SEQ ID NO: 45) (Origene) were transiently transfected into Expi293F cells by ExpiFectamine293 transfection kit (Life Technologies). Flow cytometry assays were performed 48 h after transfection.
(§1) 2×10⁵ cells per well were seeded in 96-well plate and blocked in BSA Stain Buffer (BD Biosciences, San Jose, USA) for 30 min at 4° C. Cells were incubated with test mAbtyrin on ice for 1.5 h at 4° C. After being washed twice with BSA stain buffer, the cells were incubated with R-PE labeled anti-human or anti-mouse IgG secondary antibody (Jackson Immunoresearch Laboratories) for 45 min at 4° C. The cells were washed twice in stain buffer and then resuspended in 150 μL of Stain Buffer containing 1:200 diluted DRAQ7 live/dead stain (Cell Signaling Technology, Danvers, USA). PE and DRAQ7 signals of the stained cells were detected by Miltenyi MACSQuant flow cytometer (Miltenyi Biotec, Auburn, USA) using B2 and B4 channel respectively. Live cells were gated on DRAQ7 exclusion and the geometric mean fluorescence signals were determined for at least 10,000 live events collected. FlowJo software (Tree Star) was used for analysis. Data was plotted as the logarithm of antibody concentration versus mean fluorescence signals. Nonlinear regression analysis was performed by GraphPad Prism 6 (GraphPad Software, Inc.) and EC₅₀ values were calculated.
Background: A flow cytometer gives signals particle by particle.

In experiment [3] the target is T1, human FcγRIIB (NM_004001) expressed on …. The experiment can be described thus: cell-based or functional assay. The source holds these as a separate data set.
Experiment [4] has the same target. Put plainly: flow cytometry; Raji cells (express predominantly FcγRIIB). As for the experimental part: as §1
Raji cell is a cell line derived from B cells that express predominantly FcγRIIB. The binding of mAbtyrins on Raji cells were investigated by flow cytometry assay described for testing mAbtyrin binding to FcγR. Binding of the mAbtyrins were detected by flow cytometry using a PE-labeled Goat F(ab′) against Human IgG(γ).

Experiment [5] concerns the target T3, human FcγRIIA (NM_021642) expressed on cells (human, UniProt P12318 36-317).
T3 construct: Transiently expressed on Expi293F cells; also used here for FcγRIIA on human macrophages in the ADCP assay; also called Expi293F FcγRIIA; HEK293F cells expressing FcγRIIA
T3 sequence: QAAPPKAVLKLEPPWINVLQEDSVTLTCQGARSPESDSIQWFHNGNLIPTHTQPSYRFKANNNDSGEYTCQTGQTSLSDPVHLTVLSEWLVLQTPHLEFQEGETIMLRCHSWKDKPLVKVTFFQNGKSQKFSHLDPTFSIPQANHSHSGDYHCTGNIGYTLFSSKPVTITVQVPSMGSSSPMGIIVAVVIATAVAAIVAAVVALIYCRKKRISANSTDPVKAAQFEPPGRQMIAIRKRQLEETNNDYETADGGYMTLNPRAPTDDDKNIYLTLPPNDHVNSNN
Put plainly: flow cytometry; Expi293F cells transfected with FcγRIIA.

Experiment [6] has as its target T1, human FcγRIIB (NM_004001) expressed on …. The experiment can be described thus: flow cytometry; Expi293F cells transfected with FcγRIIB.
For another experiment, the target named is T4, FcγRIIB protein (human, UniProt P31994 43-217, biotinylated (SureLINK Biotin Kit) in the ELISA of Example 1).
T4 construct: Soluble/recombinant antigen used in ELISA; also called bt-FcγRIIB; recombinant FcγRIIB protein
T4 sequence: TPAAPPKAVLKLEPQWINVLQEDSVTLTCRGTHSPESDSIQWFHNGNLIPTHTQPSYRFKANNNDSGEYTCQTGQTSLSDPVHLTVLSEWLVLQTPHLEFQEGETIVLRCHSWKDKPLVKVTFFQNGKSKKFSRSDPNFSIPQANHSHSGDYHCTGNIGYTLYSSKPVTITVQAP
Put plainly: ELISA; FcγRIIB protein coated on plate, anti-human IgG-HRP detection. On the procedure: Effect of the mAbtyrins on T cell activation was evaluated. Briefly, recombinant FcγRIIB or FcγRIIA protein was coated on the plate to provide the crosslinking activity. For T cell activation assay, 100 μL of 30 ng/mL anti-CD3 antibody (OKT3) and 1 μg/mL FcγRIIB or FcγRIIA protein in DPBS were coated in U-bottomed 96-well tissue culture plate overnight. CD4 positive T cells were isolated from PBMC by negative selection. OX40 expression was induced by culturing the isolated T cells in the presence of 1 μg/mL PHA overnight. On the assay day, the coating solution in the plate were aspirated and 150 μL RPMI media was added to block the plate. The cultured T cells were washed three times by RPMI culture media and between 25,000 to 50,000 CD4 positive T cells were seeded in each well in the assay plate. Test mAbtyrins were added to the cells and the plate was incubated for 3 days. T cell activation was assessed by the induction of IFNγ or TNFα production, which was quantitated by human IFNγ or TNFα ELISA detection kit (Biolegend). Prior to T cell activation assay, the binding affinity of mAbtyrins to immobilized FcγRIIB or FcγRIIA protein were evaluated by an ELISA assay. […] The binding of mAbtyrins to immobilized FcγRIIB or FcγRIIA protein were detected by HRP-conjugated anti-Human IgG(γ) secondary antibody and quantitated by ELISA assay using TMB substrate.

B1: OX40SF2IgG2sigma_R2BS29_HC-C (bispecific antibody)
heavy: QVQLVQSGAEVKKPGSSVKVSCKASGYTFKDYTMHWVRQAPGQGLEWIGGIYPNNGGSTYNQNFKDRVTLTADKSTSTAYMELSSLRSEDTAVYYCARMGYHGPHLDFDVWGQGTTVTVSSASTKGPSVFPLAPCSRSTSESTAALGCLVKDYFPEPVTVSWNSGALTSGVHTFPAVLQSSGLYSLSSVVTVPSSNFGTQTYTCNVDHKPSNTKVDKTVERKCCVECPPCPAPPAAASSVFLFPPKPKDTLMISRTPEVTCVVVDVSAEDPEVQFNWYVDGVEVHNAKTKPREEQFNSTFRVVSVLTVLHQDWLNGKEYKCKVSNKGLPSSIEKTISKTKGQPREPQVYTLPPSREEMTKNQVSLTCLVKGFYPSDIAVEWESNGQPENNYKTTPPMLDSDGSFFLYSKLTVDKSRWQQGNVFSCSVMHEALHNHYTQKSLSLSPGKGGGGGSGGGGSGGGGSGGGGSLPAPKNLVVSRVTEDSARLSWTAPDAAFDSFPIYYWEYRVGGEAIVLTVPGSERSYDLTGLKPGTEYFVYINGVKGGEESRPLSAIFTT
light: DIQMTQSPSSLSASVGDRVTITCKASQDVGAAVAWYQQKPGKAPKLLIYWASTRHTGVPSRFSGSGSGTDFTLTISSLQPEDFATYYCQQYINYPLTFGGGTKVEIKRTVAAPSVFIFPPSDEQLKSGTASVVCLLNNFYPREAKVQWKVDNALQSGNSQESVTEQDSKDSTYSLSSTLTLSKADYEKHKVYACEVTHQGLSSPVTKSFNRGEC
notes: mAbtyrin: anti-OX40 antibody OX40SF2, effector silent IgG2sigma, with linker and R2BS29 FN3 domain at the C-terminus of the heavy chain; also called mAbtyrin
What is called EC50 is the concentration that produces a half-maximal response. A low value points to greater potency. With B1, the “fold of agonism enhancement upon crosslinking (Daudi cells)” value in experiment [1] came out at 45 fold. The EC50 in experiment [2] was more than 10 µg/mL; in experiment [4] it was 1.44 µg/mL; in experiment [5] it was 0.091 µg/mL; in experiment [6], 0.512 µg/mL. The “% activity at 1 µg/ml with Raji cells (HEK-Blue: OX40 NF-κB reporter, relative to 1 µg/ml OX40 ligand)” value in experiment [3] came out at 86%. Also, in experiment [3], the “fold of agonism enhancement upon crosslinking (Raji cells)” value amounted to 15 fold.

B2: OX40SF2IgG1 (antibody)
heavy: not shown
light: DIQMTQSPSSLSASVGDRVTITCKASQDVGAAVAWYQQKPGKAPKLLIYWASTRHTGVPSRFSGSGSGTDFTLTISSLQPEDFATYYCQQYINYPLTFGGGTKVEIKRTVAAPSVFIFPPSDEQLKSGTASVVCLLNNFYPREAKVQWKVDNALQSGNSQESVTEQDSKDSTYSLSSTLTLSKADYEKHKVYACEVTHQGLSSPVTKSFNRGEC
notes: Anti-OX40 antibody, wild-type IgG1; control without FN3 domain
In experiment [2], B2 had an EC50 of 0.494 µg/mL. Further, the binding result with FcγRIIB protein is “no binding”.

B3: OX40SF2IgG2sigma (antibody)
heavy: QVQLVQSGAEVKKPGSSVKVSCKASGYTFKDYTMHWVRQAPGQGLEWIGGIYPNNGGSTYNQNFKDRVTLTADKSTSTAYMELSSLRSEDTAVYYCARMGYHGPHLDFDVWGQGTTVTVSSASTKGPSVFPLAPCSRSTSESTAALGCLVKDYFPEPVTVSWNSGALTSGVHTFPAVLQSSGLYSLSSVVTVPSSNFGTQTYTCNVDHKPSNTKVDKTVERKCCVECPPCPAPPAAASSVFLFPPKPKDTLMISRTPEVTCVVVDVSAEDPEVQFNWYVDGVEVHNAKTKPREEQFNSTFRVVSVLTVLHQDWLNGKEYKCKVSNKGLPSSIEKTISKTKGQPREPQVYTLPPSREEMTKNQVSLTCLVKGFYPSDIAVEWESNGQPENNYKTTPPMLDSDGSFFLYSKLTVDKSRWQQGNVFSCSVMHEALHNHYTQKSLSLSPGK
light: DIQMTQSPSSLSASVGDRVTITCKASQDVGAAVAWYQQKPGKAPKLLIYWASTRHTGVPSRFSGSGSGTDFTLTISSLQPEDFATYYCQQYINYPLTFGGGTKVEIKRTVAAPSVFIFPPSDEQLKSGTASVVCLLNNFYPREAKVQWKVDNALQSGNSQESVTEQDSKDSTYSLSSTLTLSKADYEKHKVYACEVTHQGLSSPVTKSFNRGEC
notes: Anti-OX40 antibody, IgG2 sigma isotype (effector silent Fc: V234A, G237A, P238S, H268A, V309L, A330S, P331S against wild type IgG2); control without FN3 domain; also called parental antibody; parental OX40 antibody
Consider B3, for which the “fold of agonism enhancement upon crosslinking (Daudi cells)” value in experiment [1] came to 1 fold. For the same molecule, the “% activity at 1 µg/ml with Raji cells (HEK-Blue: OX40 NF-κB reporter, relative to 1 µg/ml OX40 ligand)” value in experiment [3] was determined as 2.2%. Besides, the “fold of agonism enhancement upon crosslinking (Raji cells)” value in experiment [3] worked out at 1 fold. Further, the EC50 in experiment [4], in experiment [5] and in experiment [6] was more than 10 µg/mL throughout. The binding result with FcγRIIB protein is recorded as “no binding”.

These data come from US20190062420A1 (Janssen / Centocor, published 2019).
